Test results reported in patent US20260158070A1, “COMPOSITIONS AND METHODS FOR THE TREATMENT AND DIAGNOSIS OF CANCERS ASSOCIATED WITH SURFACE K-RAS” (UNIVERSITY OF MARYLAND, BALTIMORE, priority 2023, published 2026).

Legend:
[1] = test system: Panc-1 (K-Ras G12D mutant); assay: Growth and viability of pancreatic cancer cells cultured with R11.1.6 constructs (cell count, Trypan blue); type: cell-based, human; settings: Panc-1, 20,000 cells/well, counted after 5 days of culture
Protocol: We next evaluated growth as well as viability of two pancreatic cancer cell lines driven by either G12D (Panc-1) or G12C (MiaPaca-2) mutant K-Ras in vitro. We plated 20,000 cells/well in Dulbecco's modified Eagles media (DMEM) with 10% fetal bovine serum (FBS) in a flat bottom 96 well plate and counted cells after 5 days of culture. Viability of cells were calculated based on Trypan blue dye exclusion method, where dead cells were blue due to uptake of the viability dye and live cells were not stained. Viability was measured by using Countess II FL cell viability and cell counter instrument by Invitrogen (ThermoFisher USA).
Further evaluation of growth inhibition was performed with control Sulfolobus solfataricus-derived proteins of similar molecular weight. […] We started with 200,000 cells in a 96 well V-bottom plate and used BD phosflow buffer set III (BD biosciences, catalog number 558050) to stabilize and optimize the phosphor moiety. Next, we stained the cells with anti-phospho-Akt (ser473, Clone D9E) PE conjugated (Cell Signaling Technologies, Catalog number 5315S) at a concentration of 0.125 ug/100 ul or anti-phosho-ERK1/2, PE conjugated (ThermoFisher USA catalog number 12-9109-42) at a concentration of 0.125 ug/100 ul. Cells were washed in FACS staining buffer and run in a LSR Fortessa II flow cytometer (BD Biosciences, USA). Acquisition was done was using FACS DIVA software (BD Biosciences) and analysis was performed in FlowJo software (Tree Star, OR, USA). This was a significant finding as both Akt and ERK1/2 are important downstream molecules of K-Ras signaling, like that described for small molecule inhibitors of K-Ras (PMID: 12509763) (FIG. 1g).

[2] = test system: Panc-1 (G12D mutant K-Ras); assay: Localization / surface binding of His-tagged constructs by anti-His flow cytometry and confocal microscopy; type: cell-based, human
Excerpt: However, we considered that the small 7 kDa size of this scaffolding protein and disorganized cell membrane of malignantly transformed cells may allow for cytoplasmic penetration even in the absence of a cell penetrating peptide. To evaluate this possibility, we explored the cellular location of the R11.1.6 constructs by flow cytometry and confocal microscopy. For flow cytometry experiments, cells were stained first with Live/Dead far red fixable staining kit (ThermoFisher USA, catalog number L10120). Specifically, 0.2-0.4×10^6 cells were plated in a V bottom plate and 100 ul of the dye (1:1000 dilution of stock concentration following manufacturer's protocol) was added to each well and cells incubated in room temperature for 15 mins. Next cells were washed with PBS containing 2.5% FBS and 0.1% sodium azide (FACS buffer). Cells were then surface stained by adding 100 ul/well of anti-His PE labelled antibody (mouse anti-human antibody, BioLegend, CA, USA Catalog #362603) at a concentration of 10 μg/ml. Cells were washed twice with FACS buffer and fixed by cytofix buffer (BD biosciences catalog number 554655). […] Cells were acquired using LSR Fortessa II flow cytometer using FACS DIVA software (BD Biosciences USA) and analyzed using FlowJo (Tree Star USA). […]

Molecule | growth and viability [1] | binding to the tumor cell surface (anti-His staining) [2]
E11.4.1: scaffold protein which binds human EGFR (SEQ ID NO: 8) (protein) ATVKFTYQGEEKQVDISKIMYVIRGGQRIAFGYDEGDGAWGDGIVSEKDAPKELLQMLEKQ | none of these control constructs could inhibit tumor growth | bind to the surface of tumor cells
M11.1.2: a scaffolding protein that binds mouse serum albumin (SEQ ID NO: 7) (protein) ATVKYTYRGEEKRVDISKIKWVNRWGQHLAFKYDKGGGAAGYGWVSEKDAPKELLQMLEKR | none of these control constructs could inhibit tumor growth | –
mutated form of R11.1.6: R11.1.6 with codons in the regions that contact the K-RAS mutant scrambled to prevent binding (SEQ ID NO: 6) (protein) ATVKFTHQGEEKQVDISKIKFVWRKGYVRIWGYDEDGGWGAGKYVSEKDAPKELLQMLKKR | none of these control constructs could inhibit tumor growth | –
